Laboratory results published in patent US20170037440A1 (MEDIZINISCHE HOCHSCHULE HANNOVER, published 2017).

Target: the molecule itself
Test: analytical size exclusion chromatography, self-association

B1: Δ69-CsaBco-His6 (enzyme)
chain: MLIPINFFNFEYIVKKLNNQNAIGVYILPSNLTLKPALCILESHKEDFLNKFLLTISSENLKLQYKFNGQIKNPKSVNEIWTDLFSIAHVDMKLSTDRTLSSSISQFWFRLEFCKEDKDFILFPTANRYSRKLWKHSIKNNQLFKEGIRNYSEISSLPYEEDHNFDIDLVFTWVNSEDKNWQELYKKYKPDFNSDATSTSRFLSRDELKFALRSWEMNGSFIRKIFIVSNCAPPAWLDLNNPKIQWVYHEEIMPQSALPTFSSHAIETSLHHIPGISNYFIYSNDDFLLTKPLNKDNFFYSNGIAKLRLEAWGNVNGECTEGEPDYLNGARNANTLLEKEFKKFTTKLHTHSPQSMRTDILFEMEKKYPEEFNRTLHNKFRSLDDIAVTGYLYHHYALLSGRALQSSDKTELVQQNHDFKKKLNNVVTLTKERNFDKLPLSVCINDGADSHLNEEWNVQVIKFLETLFPLPSSFEKLEHHHHHH
notes: also called ΔN69-CsaB; dN69-CsaB
- binding result: binds
